In test [1] the target is ICAM-1 (Intercellular Adhesion Molecule-1) (human) (UniProt P05362). As to the kind of experiment: cell-based or functional assay.
The target in test [2] is specific cell surface receptor of synovial cells (unidentified), on human RA synovial fibroblasts (human). As to the kind of experiment: flow cytometry competition on synovial cells, unlabeled Fgn 2.5 mg for 3 h then labeled SAC[KBtn] 1 h; signal is of bound SAC[KBtn].
For test [3] the target is unchanged. The test is described as follows: flow cytometry competition on synovial cells, unlabeled GPRP 2.5 mg for 3 h then labeled SAC[KBtn] 1 h; signal is of bound SAC[KBtn].
The target is the same in test [4]. As to the kind of experiment: flow cytometry on synovial cells, SAC[KBtn] 1 h without competitor, avidin-FITC detection (avidin-FITC alone 20.16).
The target is the same in test [5]. The test is described as follows: flow cytometry on RA #16 synovial fibroblasts, 200 ug peptide, avidin-FITC detection (avidin-FITC alone 13.71).
Test [6] shares this target. The test is described as follows: flow cytometry on RA #16 synovial fibroblasts, 100 ug peptide, avidin-FITC detection (avidin-FITC alone 3.6 %).
Test [7] shares this target. The test is described as follows: flow cytometry on RA #16 synovial fibroblasts, 200 ug peptide, avidin-FITC detection (avidin-FITC alone 3.6 %).
Test [8] shares this target. As to the kind of experiment: flow cytometry on RA #16 synovial fibroblasts, 100 ug peptide, avidin-FITC detection (avidin-FITC alone 13.71).
For test [9] the target is unchanged. As to the kind of experiment: flow cytometry competition on synovial cells, unlabeled SAC 2.5 mg for 3 h then labeled SAC[KBtn] 1 h; signal is of bound SAC[KBtn].
The target is the same in test [10]. As to the kind of experiment: flow cytometry on RA #16 synovial fibroblasts, 100 ug control peptide, avidin-FITC detection (avidin-FITC alone 3.6 %).
Test [11] has the same target. As to the kind of experiment: flow cytometry on RA #16 synovial fibroblasts, 100 ug control peptide, avidin-FITC detection (avidin-FITC alone 13.71).

Where no end group is shown, it is not given here. The star is where a group is joined. Biotin = O=C1N[C@H]2[C@H](CS[C@H]2CCCCC(=O)*)N1

Chain of ICAM-1 (Intercellular Adhesion Molecule-1) (human) (P05362 28-532): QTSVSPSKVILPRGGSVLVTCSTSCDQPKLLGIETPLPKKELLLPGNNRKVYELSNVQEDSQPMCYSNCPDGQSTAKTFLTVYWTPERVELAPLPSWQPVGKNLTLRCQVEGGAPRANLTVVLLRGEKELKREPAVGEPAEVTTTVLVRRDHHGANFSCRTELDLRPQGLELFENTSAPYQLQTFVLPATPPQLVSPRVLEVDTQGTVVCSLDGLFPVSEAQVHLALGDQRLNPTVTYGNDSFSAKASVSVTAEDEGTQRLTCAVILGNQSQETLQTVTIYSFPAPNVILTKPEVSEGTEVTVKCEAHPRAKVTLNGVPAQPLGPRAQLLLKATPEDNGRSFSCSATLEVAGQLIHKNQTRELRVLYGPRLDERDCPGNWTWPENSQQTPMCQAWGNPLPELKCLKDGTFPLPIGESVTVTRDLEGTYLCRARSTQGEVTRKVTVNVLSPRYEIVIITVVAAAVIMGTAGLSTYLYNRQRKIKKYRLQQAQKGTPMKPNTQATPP

Take “T-cell LFA-1 (from UniProt P20701 26-1170; P05107 23-769) (receptor)”: in test [1], the adherent T cell numbers, Foreskin line, GPRP 0.1 mg/ml came out at 51 T cells; the adherent T cell numbers, Foreskin line, GPRP 1 mg/ml turned out to be 54 T cells; the adherent T cell numbers, Foreskin line, IL-1 beta 1 ng/ml came to 94 T cells; the adherent T cell numbers, Foreskin line, control was 47 T cells. For the same molecule, in test [1], the adherent T cell numbers, OA line 15, GPRP 0.1 mg/ml was 92 T cells; the adherent T cell numbers, OA line 15, GPRP 1 mg/ml worked out at 113 T cells; the adherent T cell numbers, OA line 15, IL-1 beta 1 ng/ml worked out at 66 T cells; the adherent T cell numbers, OA line 15, control came out at 35 T cells. For the same molecule, in [1], the adherent T cell numbers, RA line 7, GPRP 0.1 mg/ml was found to be 184 T cells; the adherent T cell numbers, RA line 7, GPRP 1 mg/ml is 153 T cells; the adherent T cell numbers, RA line 7, IL-1 beta 1 ng/ml was determined as 116 T cells; the adherent T cell numbers, RA line 7, control is 80 T cells. Moreover, in [1], the adherent T cell numbers, RA line 8, GPRP 0.1 mg/ml worked out at 99 T cells; the adherent T cell numbers, RA line 8, GPRP 1 mg/ml came out at 97 T cells; the adherent T cell numbers, RA line 8, IL-1 beta 1 ng/ml came out at 58 T cells; the adherent T cell numbers, RA line 8, control came out at 29 T cells.
Regarding “unlabeled fibrinogen (from UniProt P02671 20-629; P02675 31-491; P02679 27-437)”, in [2], the Mean was found to be 21.6.
H-GPRP-OH [synthetic tetrapeptide Gly-Pro-Arg-Pro] came in with a Mean in test [3] of 33.6.
In test [4], GPRVVERHQSACK(Biotin) [biotinylated amino acid sequence 17-28 of human fibrinogen Aα chain, …[KBtn]] gave a Mean of 51.2. For the same molecule, the values for the Mean Fluorescent Channel in test [5] and in test [8] were 125 and 258, respectively. Besides, the % Cells Positive came out at 86.3% in [6] and 80% in test [7].
In test [9], GPRVVERHQSAC [unlabeled …] registered a Mean of 36.3.
In test [10], GHRPLDKKREEK(Biotin) yielded a % Cells Positive of 10.6%. The Mean Fluorescent Channel in test [11] was 20.4.
